Test results published in paper PMC3573033, “Allosteric Regulation of Serine Protease HtrA2 through Novel Non-Canonical Substrate Binding Pocket” (PLoS ONE, 2013).

T1: HtrA2 (High temperature requirement protease A2), mature (Δ133 HtrA2), wild type (UniProt O43464 134-458)
T1 construct: HtrA2 (High temperature requirement protease A2), mature form Δ133, 325 amino acids; numbers count on: the mature protein; source: E. coli BL21 (DE3) pLysS, purified (nickel-IDA, gel permeation chromatography)
T1 sequence (looked up): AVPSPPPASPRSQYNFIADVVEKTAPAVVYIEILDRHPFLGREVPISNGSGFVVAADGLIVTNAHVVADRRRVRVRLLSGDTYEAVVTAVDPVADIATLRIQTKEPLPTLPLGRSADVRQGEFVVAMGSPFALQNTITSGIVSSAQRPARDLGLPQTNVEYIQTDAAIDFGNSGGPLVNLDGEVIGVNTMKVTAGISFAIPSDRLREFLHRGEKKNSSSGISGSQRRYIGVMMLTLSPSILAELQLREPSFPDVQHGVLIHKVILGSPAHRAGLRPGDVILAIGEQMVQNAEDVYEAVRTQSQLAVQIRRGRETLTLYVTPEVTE


What was measured:
[1] = biological target: T1, HtrA2 (High temperature requirement …); assay: ITC; MicroCal ITC200; 200 µl of wild type or N216A/S219A HtrA2 (20 to 50 µM) in the cell, titrated with 1.5 µl injections of 0.4 mM activator peptide; 20 mM Na2HPO4/NaH2PO4, 100 mM NaCl, pH 7.8; 25°C; one site-binding model; settings: both partners purified
[2] = biological target: HtrA2 N-SPD (N-terminal and serine protease domains, residues 1-210)
[3] = biological target: HtrA2 (High temperature requirement protease A2), mature (Δ133 HtrA2), wild type (UniProt O43464)

Kd [1] [µM] | Km, cleavage of FITC-labelled β-casein (steady state kinetics) [2] [µM] | Km, cleavage of FITC-labelled β-casein (steady state kinetics) [3] [µM] | Binder
7.5 |  |  | SEHRRHFPNCFFV [13mer activating peptide SEHRRHFPNCFFV]
 | 3.02 | 4.59 | FITC-labelled β-casein (natural protein, FITC label) RELEELNVPGEIVESLSSSEESITRINKKIEKFQSEEQQQTEDELQDKIHPFAQTQSLVYPFPGPIPNSLPQNIPPLTQTPVVVPPFLQPEVMGVSKVKEAMAPKHKEMPFPKYPVEPFTESQSLTLTDVENLHLPLPLLQSWMHQPHQPLPPTVMFPPQSVLSLSQSKVLPVPQKAVPYPQRDMPIQAFLLYQEPVLGPVRGPFPIIV
